Test results as given in patent US20220288229A1 (priority 2012, published 2022).

Assay: Tolerability observations after IV dosing in the rat PK study
Format: in vivo
Conditions: rats, 1 mg/kg dose, three rats
Protocol: For PK studies, a 0.1 mg/mL solution was dosed at 10 mL/kg such that a 1 mg/kg IV bolus dose was introduced by tail vein injection into rats Following compound administration, blood was collected at 0.083 h, 0.25 h, 0.5 h, 1 h, 2 h, 4 h, 8 h, and 24 h post dose into lithium heparin coated vacuum tubes. Tubes were inverted for 5 minutes and then placed on wet ice until centrifuged for 5 minutes at 4° C. at 6000 rpm. Plasma was harvested, frozen at −80° C. and shipped to for bioanalysis on dry ice.

CCCCN(CCSSC[C@@H]1NC(=O)[C@@H](Cc2ccccc2)NC(=O)[C@H](CC(=O)O)NC(=O)CNC(=O)[C@H](CCCNC(=N)N)NC1=O)C(=O)O[C@@H](C(=O)OC1C[C@@]2(O)[C@@H](OC(=O)c3ccccc3)[C@@H]3[C@]4(OC(C)=O)CO[C@@H]4C[C@H](OC)[C@@]3(C)C(=O)[C@H](OC)C(=C1C)C2(C)C)[C@@H](NC(=O)OC(C)(C)C)c1ccccc1 (some centres unmarked) [BT-568]
Clinical signs of toxicity post dose: lethargy and labored breathing were observed immediately post dose in all three rats
Mortality: one of the three animals died
